Measured values from patent US20110306125A1, “Protein Expression Methods” (Ironwood Pharmaceuticals, Inc., priority 2008, published 2011).

Target: T1, GC-C receptor (Homo sapiens, UniProt P25092)
T1 construct: production of intracellular cGMP using cultured human colon carcinoma T84 cells; endogenous in cells; host or cells: T84 human colon carcinoma cells
Experiment: production of intracellular cGMP in cultured human colon carcinoma T84 cells (cGMP ELISA)
Format: cell-based
Settings: intracellular cGMP by ELISA kit, compared with synthetic human uroguanylin, FIG. 8
Protocol: The ability of polypeptides, variant polypeptides and other compounds to bind to and activate the intestinal GC-C receptor can be tested using the T84 human colon carcinoma cell line (American Type Culture Collection (Bethesda, Md.).
Briefly, cells are grown to confluency in 24-well culture plates with a 1:1 mixture of Ham's F12 medium and Dulbecco's modified Eagle's medium (DMEM), supplemented with 5% fetal calf serum and are used at between passages 54 and 60.
Monolayers of T84 cells in 24-well plates are washed twice with 1 ml/well DMEM, then incubated at 37° C. for 10 min with 0.45 ml DMEM containing 1 mM isobutylmethylxanthine (IBMX), a cyclic nucleotide phosphodiesterase inhibitor. Test polypeptides (50Tl) are then added and incubated for 30 minutes at 37° C. The media is aspirated and the reaction is terminated by the addition of ice cold 0.5 ml of 0.1N HCl. […] Cyclic GMP is measured by EIA according to procedures outlined in the Cayman Chemical Cyclic GMP EIA kit.
The activity of the mature peptide was evaluated by the production of intracellular cGMP using cultured human colon carcinoma T84 cells, as described by Currie et al. (Pro. Natl. Acad. Sci. USA., 89:947-951, 1992). cGMP levels were subsequently measured using a cGMP ELISA kit (Cayman Chemical, Ann Arbor, Mich.) according to the manufacturer's protocol. […]

T1 sequence (P25092 24-1073): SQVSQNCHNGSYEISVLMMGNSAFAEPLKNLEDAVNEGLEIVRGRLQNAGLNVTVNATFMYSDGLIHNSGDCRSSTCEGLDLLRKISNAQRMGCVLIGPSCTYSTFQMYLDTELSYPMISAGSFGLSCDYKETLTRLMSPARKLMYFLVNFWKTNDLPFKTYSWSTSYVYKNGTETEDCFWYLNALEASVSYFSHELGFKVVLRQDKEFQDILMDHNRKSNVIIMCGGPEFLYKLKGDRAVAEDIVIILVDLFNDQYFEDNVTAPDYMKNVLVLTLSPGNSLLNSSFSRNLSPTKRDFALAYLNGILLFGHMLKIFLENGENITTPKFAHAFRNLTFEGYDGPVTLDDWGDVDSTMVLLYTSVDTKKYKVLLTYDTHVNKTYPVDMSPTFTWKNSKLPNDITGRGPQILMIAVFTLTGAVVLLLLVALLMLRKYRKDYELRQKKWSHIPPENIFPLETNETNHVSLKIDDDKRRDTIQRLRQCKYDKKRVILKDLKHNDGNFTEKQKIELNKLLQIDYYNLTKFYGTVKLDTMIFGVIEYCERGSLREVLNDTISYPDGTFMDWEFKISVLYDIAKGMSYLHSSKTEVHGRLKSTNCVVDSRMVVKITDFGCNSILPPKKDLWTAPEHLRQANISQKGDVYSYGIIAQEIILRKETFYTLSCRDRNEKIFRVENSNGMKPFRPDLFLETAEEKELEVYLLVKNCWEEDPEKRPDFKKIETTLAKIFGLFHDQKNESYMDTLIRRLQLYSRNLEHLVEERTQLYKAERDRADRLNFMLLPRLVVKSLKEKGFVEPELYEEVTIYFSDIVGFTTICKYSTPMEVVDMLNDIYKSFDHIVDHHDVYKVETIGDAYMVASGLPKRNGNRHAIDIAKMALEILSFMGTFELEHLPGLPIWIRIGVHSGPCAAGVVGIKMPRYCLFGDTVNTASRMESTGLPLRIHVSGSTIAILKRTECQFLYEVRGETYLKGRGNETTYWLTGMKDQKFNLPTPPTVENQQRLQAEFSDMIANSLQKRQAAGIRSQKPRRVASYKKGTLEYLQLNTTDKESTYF

Sequence: NDDCELCVNVACTGCL [mature UGN peptide]
- cGMP levels produced: comparable to those levels produced using synthetic human UGN
